Results reported in the supplement of paper PMC9112550, “Optimization of the antimicrobial peptide Bac7 by deep mutational scanning” (BMC Biology, 2022).

The sequences below were run on Escherichia coli TOP10 (assay: shrunken log2 fold change of peptide-encoding DNA abundance (4.5 h post-induction vs induction); higher = less antimicrobial activity (less host growth inhibition)). Details: time post-induction: 4.5 h; library: site-saturation at positions 5, 18, 19, 20.
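Also: peptides expressed intracellularly from a pBAD plasmid library in pooled LB shake-flask culture, induced with 0.3% L-arabinose, DNA abundance read by NGS, three biological replicates, DESeq2 with apeglm shrinkage.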

| Sequence | shrunken log2 fold change |
| --- | --- |
| RRIRVRPPRLPRPRPRPNPSPRP | 0.0073 |
| RRIRARPPRLPRPRPRPAMVPRP | 0.109 |
| RRIRLRPPRLPRPRPRPYYCPRP | -0.223 |
| RRIRRRPPRLPRPRPRPQVCPRP | -0.175 |
| RRIRARPPRLPRPRPRPYVVPRP | -0.623 |
| RRIRGRPPRLPRPRPRPHQQPRP | 0.101 |
| RRIRIRPPRLPRPRPRPSRVPRP | -0.0608 |
| RRIRARPPRLPRPRPRPQPGPRP | 0.563 |
| RRIRLRPPRLPRPRPRPNHEPRP | -0.0961 |
| RRIRMRPPRLPRPRPRPLRVPRP | 1.14 |
| RRIRWRPPRLPRPRPRPFDTPRP | -0.113 |
| RRIRERPPRLPRPRPRPKQIPRP | 0.169 |
| RRIRYRPPRLPRPRPRPHGKPRP | 0.0161 |
| RRIRMRPPRLPRPRPRPTTSPRP | 0.499 |
| RRIRWRPPRLPRPRPRPTISPRP | 0.21 |
| RRIRRRPPRLPRPRPRPSSGPRP | 0.0144 |
| RRIRWRPPRLPRPRPRPWELPRP | -0.0481 |
| RRIRMRPPRLPRPRPRPNRVPRP | -0.144 |
| RRIRQRPPRLPRPRPRPFLGPRP | -0.38 |
| RRIRPRPPRLPRPRPRPKRYPRP | 0.281 |
| RRIRQRPPRLPRPRPRPTNCPRP | -0.33 |
| RRIRRRPPRLPRPRPRPWTRPRP | -0.0224 |
| RRIRGRPPRLPRPRPRPHVFPRP | 0.162 |
| RRIRWRPPRLPRPRPRPRAKPRP | 0.788 |
| RRIRHRPPRLPRPRPRPLFYPRP | -0.702 |

| Sequence | shrunken log2 fold change |
| --- | --- |
| RRIRDRPPRLPRPRPRPRIVPRP | -0.385 |
| RRIRTRPPRLPRPRPRPAWTPRP | 0.101 |
| RRIRFRPPRLPRPRPRPCSLPRP | -0.122 |
| RRIRVRPPRLPRPRPRPNKQPRP | 0.0173 |
| RRIRERPPRLPRPRPRPAPNPRP | 0.258 |
| RRIRMRPPRLPRPRPRPRYCPRP | -0.164 |
| RRIRIRPPRLPRPRPRPYVLPRP | -0.588 |
| RRIRERPPRLPRPRPRPVGTPRP | 0.0306 |
| RRIRTRPPRLPRPRPRPWMSPRP | 0.00487 |
| RRIRQRPPRLPRPRPRPQENPRP | -0.0517 |
| RRIRDRPPRLPRPRPRPINNPRP | -1.21 |
| RRIRGRPPRLPRPRPRPWDTPRP | 0.194 |
| RRIRWRPPRLPRPRPRPCTYPRP | -0.473 |
| RRIRPRPPRLPRPRPRPISIPRP | -0.109 |
| RRIRRRPPRLPRPRPRPCCLPRP | 0.0396 |
| RRIRFRPPRLPRPRPRPQKLPRP | -0.211 |
| RRIRTRPPRLPRPRPRPWNIPRP | 0.0303 |
| RRIRTRPPRLPRPRPRPYSKPRP | -0.565 |
| RRIRIRPPRLPRPRPRPSVPPRP | -0.835 |
| RRIRPRPPRLPRPRPRPQPGPRP | 0.204 |
| RRIRARPPRLPRPRPRPYGFPRP | 0.00293 |
| RRIRWRPPRLPRPRPRPKFKPRP | -0.00802 |
| RRIRPRPPRLPRPRPRPEYLPRP | 0.0461 |
| RRIRDRPPRLPRPRPRPMVMPRP | 0.133 |
| RRIRERPPRLPRPRPRPIDIPRP | -0.01 |

| Sequence | shrunken log2 fold change |
| --- | --- |
| RRIRFRPPRLPRPRPRPLAYPRP | -0.534 |
| RRIRRRPPRLPRPRPRPQSIPRP | -0.0196 |
| RRIRPRPPRLPRPRPRPWYHPRP | -0.516 |
| RRIRTRPPRLPRPRPRPAITPRP | -0.44 |
| RRIRDRPPRLPRPRPRPHSHPRP | -0.19 |
| RRIRQRPPRLPRPRPRPIIRPRP | 0.00525 |
| RRIRHRPPRLPRPRPRPSTEPRP | -0.168 |
| RRIRHRPPRLPRPRPRPVHDPRP | 0.079 |
| RRIRCRPPRLPRPRPRPNNMPRP | -0.745 |
| RRIRWRPPRLPRPRPRPLAVPRP | 0.541 |
| RRIRRRPPRLPRPRPRPRWGPRP | 0.533 |
| RRIRERPPRLPRPRPRPQNWPRP | -0.0518 |
| RRIRARPPRLPRPRPRPYCNPRP | -0.378 |
| RRIRGRPPRLPRPRPRPEIKPRP | 1.24 |
| RRIRGRPPRLPRPRPRPHVEPRP | 0.36 |
| RRIRFRPPRLPRPRPRPIAKPRP | -0.181 |
| RRIRNRPPRLPRPRPRPYKMPRP | -0.0115 |
| RRIRYRPPRLPRPRPRPDVRPRP | -0.0526 |
| RRIRHRPPRLPRPRPRPKLYPRP | 0.0366 |
| RRIRNRPPRLPRPRPRPHAWPRP | -0.0119 |
| RRIRRRPPRLPRPRPRPRLYPRP | -0.00733 |
| RRIRNRPPRLPRPRPRPWIVPRP | 0.0724 |
| RRIRMRPPRLPRPRPRPVSWPRP | 0.553 |
| RRIRLRPPRLPRPRPRPVSNPRP | -0.837 |
| RRIRTRPPRLPRPRPRPLSDPRP | -0.029 |

| Sequence | shrunken log2 fold change |
| --- | --- |
| RRIRKRPPRLPRPRPRPVPGPRP | 0.515 |
| RRIRDRPPRLPRPRPRPGKNPRP | -0.543 |
| RRIRVRPPRLPRPRPRPAHNPRP | -0.296 |
| RRIRPRPPRLPRPRPRPMMQPRP | -0.369 |
| RRIRPRPPRLPRPRPRPCINPRP | -0.726 |
| RRIRLRPPRLPRPRPRPIDFPRP | -0.384 |
| RRIRTRPPRLPRPRPRPMPMPRP | 0.467 |
| RRIRRRPPRLPRPRPRPGYVPRP | 0.183 |
| RRIRGRPPRLPRPRPRPDHRPRP | -0.178 |
| RRIRPRPPRLPRPRPRPCMDPRP | -0.561 |
| RRIRVRPPRLPRPRPRPLMQPRP | -0.0132 |
| RRIRMRPPRLPRPRPRPWSDPRP | -0.131 |
| RRIRCRPPRLPRPRPRPNAHPRP | -0.221 |
| RRIRWRPPRLPRPRPRPGGKPRP | 0.227 |
| RRIRIRPPRLPRPRPRPCDMPRP | -0.511 |
| RRIRMRPPRLPRPRPRPDPGPRP | 0.46 |
| RRIRQRPPRLPRPRPRPACVPRP | 0.0809 |
| RRIRKRPPRLPRPRPRPRGDPRP | 0.396 |
| RRIRIRPPRLPRPRPRPSLDPRP | -0.564 |
| RRIRTRPPRLPRPRPRPHLFPRP | -0.111 |
| RRIRVRPPRLPRPRPRPDGMPRP | -0.454 |
| RRIRGRPPRLPRPRPRPMNIPRP | 0.127 |
| RRIRERPPRLPRPRPRPFKIPRP | -0.0307 |
| RRIRQRPPRLPRPRPRPVEYPRP | -0.434 |
| RRIRWRPPRLPRPRPRPDDAPRP | 0.368 |

| Sequence | shrunken log2 fold change |
| --- | --- |
| RRIRIRPPRLPRPRPRPVDAPRP | -0.0281 |
| RRIRDRPPRLPRPRPRPMNAPRP | -0.0396 |
| RRIRLRPPRLPRPRPRPCPIPRP | -0.335 |
| RRIRPRPPRLPRPRPRPHNQPRP | -0.378 |
| RRIRCRPPRLPRPRPRPYYMPRP | -0.904 |
| RRIRDRPPRLPRPRPRPTVIPRP | -0.118 |
| RRIRKRPPRLPRPRPRPPVCPRP | 0.336 |
| RRIRFRPPRLPRPRPRPVLRPRP | 0.113 |
| RRIRDRPPRLPRPRPRPQLPPRP | 0.186 |
| RRIRKRPPRLPRPRPRPAAMPRP | 0.707 |
| RRIRKRPPRLPRPRPRPYAAPRP | -0.102 |
| RRIRSRPPRLPRPRPRPHTHPRP | -0.419 |
| RRIRPRPPRLPRPRPRPQRDPRP | 0.116 |
| RRIRKRPPRLPRPRPRPSCRPRP | 0.0107 |
| RRIRMRPPRLPRPRPRPHSKPRP | -0.0418 |
| RRIRYRPPRLPRPRPRPMIHPRP | -0.0658 |
| RRIRNRPPRLPRPRPRPKYLPRP | -0.0259 |
| RRIRTRPPRLPRPRPRPQPIPRP | 0.0337 |
| RRIRFRPPRLPRPRPRPHHFPRP | -0.053 |
| RRIRVRPPRLPRPRPRPNLSPRP | -0.444 |
| RRIRYRPPRLPRPRPRPSTKPRP | -0.225 |
| RRIRNRPPRLPRPRPRPPLAPRP | 0.697 |
| RRIRIRPPRLPRPRPRPCIFPRP | -0.402 |
| RRIRYRPPRLPRPRPRPWLVPRP | -0.096 |
| RRIRDRPPRLPRPRPRPHHTPRP | -1.13 |

| Sequence | shrunken log2 fold change |
| --- | --- |
| RRIRLRPPRLPRPRPRPALQPRP | 0.215 |
| RRIRMRPPRLPRPRPRPMCNPRP | -0.00494 |
| RRIRARPPRLPRPRPRPQGTPRP | 0.451 |
| RRIRTRPPRLPRPRPRPCMLPRP | 0.0676 |
| RRIRWRPPRLPRPRPRPEDYPRP | -0.00903 |
| RRIRLRPPRLPRPRPRPEPQPRP | 0.728 |
| RRIRARPPRLPRPRPRPSLEPRP | 0.455 |
| RRIRGRPPRLPRPRPRPIQGPRP | -0.0132 |
| RRIRGRPPRLPRPRPRPDRQPRP | -0.11 |
| RRIRRRPPRLPRPRPRPKHPPRP | 0.294 |
| RRIRLRPPRLPRPRPRPDGSPRP | 0.0129 |
| RRIRQRPPRLPRPRPRPSLIPRP | -0.275 |
| RRIRCRPPRLPRPRPRPYSNPRP | -0.655 |
| RRIRRRPPRLPRPRPRPDIFPRP | 0.0756 |
| RRIRTRPPRLPRPRPRPINDPRP | -0.293 |
| RRIRSRPPRLPRPRPRPWETPRP | -0.0029 |
| RRIRLRPPRLPRPRPRPQVNPRP | -0.141 |
| RRIRERPPRLPRPRPRPFFDPRP | 0.0568 |
| RRIRNRPPRLPRPRPRPKHYPRP | -0.399 |
| RRIRGRPPRLPRPRPRPLGKPRP | 0.362 |
| RRIRPRPPRLPRPRPRPSTTPRP | -0.326 |
| RRIRVRPPRLPRPRPRPKNKPRP | -0.169 |
| RRIRRRPPRLPRPRPRPTPQPRP | 1.52 |
| RRIRVRPPRLPRPRPRPVMCPRP | -0.0631 |
| RRIRQRPPRLPRPRPRPMGRPRP | -0.00151 |
